Experiment: soluble on expression in E. coli; label from the status in PepcDB or PDB records

Sequence | soluble on expression in E. coli
MSLSQPIYKRILLKLSGEALQGEDGLGIDPAILDRMAVEIKELVEMGVEVSVVLGGGNLFRGAKLAKAGMNRVVGDHMGMLATVMNGLAMRDSLFRADVNAKLMSAFQLNGICDTYNWSEAIKMLREKRVVIFSAGTGNPFFTTDSTACLRGIEIEADVVLKATKVDGVYDCDPAKNPDAKLYKNLSYAEVIDKELKVMDLSAFTLARDHGMPIRVFNMGKPGALRQVVTGTEEGTTICEGHHHHHH | soluble
MIGAILAGGYGKRLKPITDSIPKALVEIKDNYTIMDRQLFDFSIMGIEAVYILSGYLGNKIEERYGSRYRDMNIYYLREEKPLGTLYSLRNLIDEVKDDDIVLRNGDTVTDVNFLNFLKKAQDQKYYITMYVTRMKSPFGIVETFGDQIVQFREKPELNHYINAGLYYIKSDAFPYFFEKYIDRDLETTVFPRMAREGLIGSYTEEAMWIGIDSEKDLERIRADYRNREDYPWGYLKVLYDDDRSRLLEYAIKAGSDTEIDCGDGCILRIQSGLGTFGDSSDEKFRNGDVRSISGKVRVNAFENTRLELIISKKLEHHHHHH | soluble
MKTLVVALGGNALLQRGEALTAENQYRNIASAVPALARLARSYRLAIVHGNGPQVGLLALQNLAWKEVEPYPLDVLVAESQGMIGYMLAQSLSAQPQMPPVTTVLTRIEVSPDDPAFLQPEKFIGPVYQPEEQEALEAAYGWQMKRDGKYLRRVVASPQPRKILDSEAIELLLKEGHVVICSGGGGVPVTDDGAGSEAVIDKDLAAALLAEQINADGLVILTDADAVYENWGTPQQRAIRHATPDELAPFAKADGSMGPNVTAVSGYVRSRGKPAWIGALSRIEETLAGEAGTCISL | not soluble
MSLNEVHSIHGHTLLLITKPSLQATALLQHLKQSLAITGKLHNIQRSLDDISSGSIILLDMMEADKKLIHYWQDTLSRKNNNIKILLLNTPEDYPYRDIENWPHINGVFYAMEDQERVVNGLQGVLRGECYFTQKLASYLITHSGNYRYNSTESALLTHREKEILNKLRIGASNNEIARSLFISENTVKTHLYNLFKKIAVKNRTQAVSWANDNLREGHHHHHH | soluble
GPVWRKHYITYRINNYTPDMNREDVDYAIRKAFQVWSNVTPLKFSKINTGMADILVVFARGAHGDDHAFDGKGGILAHAFGPGSGIGGDAHFDEDEFWTTHSGGTNLFLTAVHEIGHSLGLGHSSDPKAVMFPTYKYVDINTFRLSADDIRGIQSLYGDPKENQRLPNPDNSEPALCDPNLSFDAVTTVGNKIFFFKDRFFWLKVSERPKTSVNLISSLWPTLPSGIEAAYEIEARNQVFLFKDDKYWLISNLRPEPNYPKSIHSFGFPNFVKKIDAAVFNPRFYRTYFFVDNQYWRYDERRQMMDPGYPKLITKNFQGIGPKIDAVFYSKNKYYYFFQGSNQFEYDFLLQRITKTLKSNSWFGC | soluble
MGSDKIHHHHHHMDVIQLSNDGRCRWLEKQVMNKIFPQAIRSAKIKDIPTQYMIIDWISNDNGKVGVDLKWFKKLGVPYVKTYNDLPEGNDFVVVNTGYDSIVHEEKVLREKGVEILDKPCPFVRKLRKEFEKIDDSYQYVLLCESNHIIIKNFATIFPRDMILIQMGNYKEKLLEQSNGKPMMFISYVTFLKKHSIQVFDFINKTFPGKDHKMVDTQCMWAAGRLSPIDEIRNMSEDILKEVRYALLIGSPGSTNKSLMSLHETIIDKGLEVINIGSLRDFLDFRRKHKKEKVLLVKSPIPNQAEKPILAFLRHGYLYAYYTLWRER | not soluble
MSLEDYTRIVADRMEGQSQVQVRAEGNVVVERNRTTLNADWADYDQSGDTVTAGDRFALQQDGTLIRGETLTYNLEQQTGEAHNVRMETEHGGRRLQSVSRTAEMLGEGHYKLTETQFNTCSAGDAGWYVKAASVEADREKGIGVAKHAAFVFGGVPIFYTPWADFPLDGNRKSGLLVPSLSAGSDGVSLSVPYYFNLAPNLDATFAPGVIGERGAVFDGQVRYLRPDYAGQSDLTWLPHDKKSGRNNRYQAKWQHRHDISDTLQAGVDFNQVSDSGYYRDFYGNKEIAGNVNLNRRVWLDYGGRAAGGSLNAGLSVLKYQTLANQSGYKDKPYALMPRLSADWRKNTGRAQIGVSAQFTRFSHDSRQDGSRLVVYPDIKWDFSNSWGYVRPKLGLHATYYSLNRFGSQEARRVSRTLPIVNIDSGMTFERNTRMFGGGVLQTLEPRLFYNYIPAKSQNDLPNFDSSESSFGYGQLFRENLYYGNDRINTANSLSAAVQSRILDGATGEERFRAGIGQKFYFKNDAVMLDGSVGKKPRSRSDWVAFASSGIGSRFILDSSIHYNQNDKRAENYAVGASYRPAQGKVLNARYKYGRNEKIYLKSDGSYFYDKLSQLDLSAQWPLTRNLSAVVRYNYGFEAKKPIEVLAGAEYKSSCGCWGAGVYAQRYVTGENTYKNAVFFSLQLKDLSSVGRNPADRMDVAVPGYIPAHSLSAGREGHHHHHH | not soluble
MNLMDLANEHDALILAHNYQTPEIQDVAHHVGDSLALAKIAAESQASTIVLCGVYFMAETTKILSPEKRVIIPEPEAGCSLASSITAEQLRAWKAEHPEAAVVAYVNTTAEVKALSDVCCTSSNAVRVVESIDPDRDILFLPDQFLGAHVQRETGRKNIHVWLGECHVHADISPTHITEMAHNNPQADLYVHPECGCTTSALWLASQGDIPQARILSTGGMMEAARKTAASTVLVATEIGMLHQLRKANTATDFIPVNPYAACPFMQMITMEKLEKALVEGHHEVHVDPVLAQRARGAVEAMITL | not soluble
AEASADLRADAMAKDRSEEERTTEAEKNERVQKHLKALTSELANARDESKKTANDMIHAENMRLGRDKYKTLRQIRQGNTKQRIDEFESM | soluble
GAMDSSEMSTICDKTLNPSFCLKFLNTKFASPNLQALAKTTLDSTQARATQTLKKLQSIIDGGVDPRSKLAYRSCVDEYESAIGNLEEAFEHLASGDGMGMNMKVSAALDGADTCLDDVKRLRSVDSSVVNNSKTIKNLCGIALVISNMLPRN | soluble
MAHHHHHHMASGGSVIGVKYNGGVLLACDTLLSYGSLAKWPNIPRMKLVGAYTVMCATGDYADFQEMTTMIENHVNRQQMYGGGALTPNEVFCYLQRHVYHKRSQFEPCLCRFVVAGCHGGEPFLGGVDDVGTRWTDDCVAAGYGAYIALPLLRQALEKPGGLTREEAIRVIKDCLRVLFYRECRAINKFQIADATSDMVSIGEPFEVETNWEYDGFCFEKTAIIR | not soluble
MPAPEAPTSTLPPERPLTNLQQQIQQLVSRQPNLTAGLYFFNLDSGASLNVGGDQVFPAASTIKFPILVAFFKAVDEGRVTLQERLTMRPDLIAPEAGTLQYQKPNSQYAALEVAELMITISDNTATNMIIDRLGGAAELNQQFQEWGLENTVINNPLPDMKGTNTTSPRDLATLMLKIGQGEILSPRSRDRLLDIMRRTVTNTLLPAGLGKGATIAHKTGDIGIVVGDAGMVDMPNGQRYVAAMMVKRPYNDPRGSELIRQVSRMVYQAFEKLSPPEQKLISEEDLNSAVDHHHHHH | soluble
MNMEEITPVDILLQLVKMGKVDPWNIDIVDLTEKYIKMLREMQELDLRISARAILAASILVRMKSEALLRGEEEENKRGEEEKIKVDVDPLVPPLRRVERYYTLDDLIEALMDALEEAEKRKPKKKKKVEIDEEIFVVDDFRVDIEKYVEELYKVVKKIYEKTKTPIKFWDLVPDVEPKIIARTFLYLLFLENMGRVEMIQEEPFGEILVVPV | soluble
MGSDKIHHHHHHMENHTDIETLLTKYFEGNTTPPENEQIEAWLNADEEHLRIAKQLNTLYLAVDTQHITKKIDTEKALDKVKSRTKVRNLSWWGWTQRIAAILSVPLLIGVLALYPDRQQPVVTAQMVEIKTNAGMTTSVLLPDSTVVHLNSESSLRYPTFFAGDVRQVELNGEAYFDVTQHPRKRFIVSTPHHSQVEVYGTSFNVEAYGNETPISTTLIEGSVGFIYKNSKGKFQKSMLSPRQKLVYSPQTGDIKCYATSGESEISWKDGKLIFNDTPLDEVLHMLGKRFNVEFVLSNKGLKGCSFTGTFTHQRLERIMEYFRISSHIRWRYIDSADIKTEKLKIEVY | not soluble
MGSDKIHHHHHHMRALDIAATGMSAQQLRVDVISNNIANMSTTGYSPRRADFADLHYQQMVRAGAINASDGTVVPAGVQIGLGVRPAAVTVTWEQGTLGATGGQLDVAIEGRGYLEVTLPSGDNAYTRDGALQRTGDGLIVTNDGFEVNPGITIPDDAQEITINANGEVFASFRGEIQPQLLGQLNMVRFTNDNGLEAIGSNLFLETGASGAPLAGDPGEDGMGTFRQGYVEQSSVDAVREITDLIEAQRGYELNAKVLTAADQILGATTQVR | not soluble
MGSSHHHHHHSSGLVPRGSDLQEDEDGVYFSSYGHYGIHEEMLKDKIRTESYRDFIYQNPHIFKDKVVLDVGCGTGILSMFAAKAGAKKVLGVDQSEILYQAMDIIRLNKLEDTITLIKGKIEEVHLPVEKVDVIISEWMGYFLLFESMLDSVLYAKNKYLAKGGSVYPDICTISLVAVSDVNKHADRIAFWDDVYGFKMSCMKKAVIPEAVVEVLDPKTLISEPCGIKHIDCHTTSISDLEFSSDFTLKITRTSMCTAIAGYFDIYFEKNCHNRVVFSTGPQSTKTHWKQTVFLLEKPFSVKAGEALKGKVTVHKNKKDPRSLTVTLTLNNSTQTYGLQ | soluble
MGSDKIHHHHHHMRAKAKLYPKEAARLIREKPGVREAVTGATLHFERNRLKAYAEVPIEAWRERAKAVKDHVLTHLDHYLELAERRLRENGVQVHWAETPEDAHRVLREVVARHGVKRAVKAKSMLTEELGVNPLLEALGVEVYETDLGEYLIQLLGEPPSHIVGPAIHLSLEEIQRLFHQRFGTPLDAPPEALAQVARRVLREAFLTAELGISGANFLVAETGTLALMENEGNIRLSTSLPRVHVAFVGIEKLLPRFADLALFLPLAARAATGQRLSTFVSLIQGPAREGEEGPLEVHVVLVDNGRTALLHDPEAWETLRCLRCGACLNACPVYRQTGGHPYGYVYSGPIGAVLDPGLLTLEEAYPLPYASTLCGACLEACPVKIPIPKLLLAWRHRAVEEGLTPSWEHGAMRAFRKVMESPALYRLFSKGLRGLPLPQDLLPLLKAWTEGRGPLKPSPKPFHELWKEVERGG | not soluble
MGSDKIHHHHHHASNPVLRISDGWVADTIAPALIHYRFAGYDSISQAHQNVDVLEVDLTSPSYDIQLVYEEHGDSLSSVAERNNAAAAINGTYEAEASFIKIGGRLLAQNRLDSTHIRYWKHEGAFLFDDDNKNIDIRFASDSTFLSHPAANILSGAPMLIDNNDPVGLNFTGNVEGMDLNKLDYEDFRRHQGVRHPRTAVALTEHKKLLLITVDGRSTQAAGMSANELTRFLLTYFCPQSALNLDGGGSTTMWIASSEQRVGGVVNHPTDNKKFDHAGQRRVTSFIVIKSSENHE | not soluble
MGSDKIHHHHHHMKLLILGNHTCGNRGDSAILRGLLDAINILNPHTEVDVMSRYPVSSSWLLNRPVMGDPLFLQMTQHNSAAGVVGRIKKVLRRRYQHQVLLSRVTDTGKLRNIAIAQGFTDFVRLLSGYDAIIQVGGSFFVDLYGVPQFEHALCTFMAKKPLFMIGHSVGPFQDEQFNQLANYVFGHCDALILRESVSLDLMKRRNITTAKVEHGVDTAWLVDHHTEDFTASYAVQHWLDVAAQQKTVAITLRELAPFDKRLGTTQQAYEKAFAGVVNRILDEGYQVIALSTCTGIDSYNKDDRMVALNLRQHISDPARYHVVMDELNDLEMGKILGACELTVGTRLHSAIISMNFATPAIAINYEHKSAGIMQQLGLPEMAIDIRHLLDGSLQAMVADTLGQLPVLNARFNEAVSRERQTGMQMVQSVLERIGEVK | not soluble
MVQALPSNIGIQQVTLKVADLDKMVNFYTKTIGLKLLKQGEGRAWLAPQGTNDAILVLKELTAGEENQGTTGLYHIAFLLPTRKDLGNMLLWLLQENVQIGAADHGYSEALYLSDPENNGIEIYWDKPEEVWDIRPNGEIIGVTEELDGDSLAAEADGHWLGISEGSKIGHIHLKVADLDATETFYKNLGFGLKSNFGQQAKFFAAGQYHHHIGTNTWSGKQLPTIQENQFGLENYTFRLPTAADLEIVQANAEEAKLHFIAKDHLLALEDPSGMIIQFTY | not soluble

From the DeepSol protein solubility set
